Source: US8226943B2, “Antibodies to notch receptors” (OncoMed Pharmaceuticals, Inc., priority 2008, dated 2012)
Where two headings read alike, the source gives them in different places.

Legend:
human Notch1 = molecular target: T1, human Notch1 (Homo sapiens, UniProt P46531); test: FACS binding to transiently transfected HEK-293 cells, human Notch1
T1 construct: expressed in transfected cells; host or cells: HEK-293, transient, co-transfected with GFP
Protocol: (§1) The ability of the 59R1 IgG2 antibody to cross-react with other Notch receptors was determined by FACS assay using HEK-293 cells transiently transfected with the human Notch1, Notch2, Notch3 or Notch4 expression plasmid and green fluorescent protein (GFP) as a transfection control. GFP positive cells indicated expression of the transgene. The 59R1 IgG2 was added to the cells at 2 μg/ml and detected by PE-conjugated goat anti-human Fc gamma specific (Jackson Immunochemicals). All Notch constructs were full length.
(§2) The binding epitope of 59R5 was determined. As was described in Example 3 for analysis of antibody 59R1, several point mutants were created within full-length Notch1, converting residues within EGF10 to the corresponding amino acids in human Notch 2. Mutants in full-length Notch sequences were generated by QuikChange® mutagenesis (Stratagene) and verified by sequencing. HEK 293 cells were transiently transfected with expression vectors encoding human Notch2, human Notch1, or human Notch1 with residues 382-386 mutated to the corresponding human Notch2 residues. Cells were also co-transfected with a plasmid encoding green fluorescent protein (GFP) to mark those cells that received transfected plasmid. […] 59R1 and 59R5 were detected by PE-conjugated goat anti-human Fc gamma specific antibody (Jackson Immunochemicals, #109-116-170). […]

mNotch1 = molecular target: T2, mNotch1 (Mus musculus, UniProt Q01705); test: Biacore affinity, mouse Notch1; assay type: binding
T2 construct: recombinant human and mouse Notch proteins (EGF10-15 for Notch1, 2, & 4; EGF9-14 for Notch3) were immobilized on a CM5 chip
T2 sequence (Q01705 372-601 limits assumed): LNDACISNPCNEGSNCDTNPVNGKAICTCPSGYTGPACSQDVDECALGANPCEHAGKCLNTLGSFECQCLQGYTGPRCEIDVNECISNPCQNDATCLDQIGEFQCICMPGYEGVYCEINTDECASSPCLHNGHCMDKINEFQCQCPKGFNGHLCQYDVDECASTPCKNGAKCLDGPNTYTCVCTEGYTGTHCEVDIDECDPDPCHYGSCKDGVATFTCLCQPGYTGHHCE
Protocol: The affinities for human and mouse Notch1, Notch2, Notch3, and Notch4 were determined using a Biacore 2000 instrument. Briefly, recombinant human and mouse Notch proteins (EGF10-15 for Notch1, 2, & 4; EGF9-14 for Notch3) were immobilized on a CM5 chip using standard amine based chemistry (NHS/EDC). For hNotch2, EGF1-12 was also tested for binding. Different antibody concentrations (1-100 nM) were injected over the protein surfaces and kinetic data were collected over time. The data was fit using the simultaneous global fit equation to yield dissociation constants (KD, nM) for each Notch (Table 3).
The sequences of the heavy chain and light chain are provided in SEQ ID NO: 49 and SEQ ID NO:18, respectively. The heavy chain variable region is provided in SEQ ID NO:50 and the light chain variable region is provide SEQ ID NO:13. The heavy chain CDR3 sequence of 59R5 comprises SIFYTT, SEQ ID NO:51. The other CDR sequences of 59R5 are identical to 59R1. […] Both antibodies bind human and murine Notch2 and Notch3 receptors with sub-nanomolar affinity (see Table 6).

C28 colon tumor cells = test: C28 colon tumor xenograft growth; assay type: in vivo, NOD-SCID mice; details: for C28 Tumor vol relative to the control group / growth of C28 colon tumors: 15 mg/kg once per week; for growth of C28 colon tumors: preventative mode
Protocol: C28 colon tumor cells (10,000 cells per mouse) were injected subcutaneously into the flank region of NOD-SCID mice. Tumors were allowed to grow for 24 days until they had reached an average volume of ˜130 mm^3. Animals were randomized into four treatment groups (n=10/group) and treatments were initiated. One group received a control antibody (1B711) at 10 mg/kg twice per week; one group received irintoecan at 7.5 mg/kg once per week plus the control antibody at 10 mg/kg twice per week; one group received 59R1 at 10 mg/kg twice per week, and the fourth group received the combination of 59R1 at 10 mg/kg twice per week and irinotecan at 7.5 mg/kg once per week. Tumor volumes were measured on the indicated days.
In another embodiment, NOD/SCID mice were injected with C28 colon tumor cells. The mice were treated with anti-Notch2/3 antibody 59R1, anti-Notch2/3 antibody 59R5 or control antibody. Antibodies were dosed at 15 mg/kg once per week in a “preventative” mode where dosing was initiated two days after cell injection.
Tumor volumes and p values for each experiment are shown relative to the control group. The PE13, C28 and Colo205 studies were carried out as described in Example 14. PN8 studies were carried out as described above. For the PN8 experiment, the control is gemcitabine alone and values for 59R1 and 59R5 are the combinations with gemcitabine. Antibodies were dosed once per week at 15 mg/kg for all experiments.

human Notch2 = human Notch2 (Homo sapiens, UniProt Q04721); test: FACS binding to transiently transfected HEK-293 cells, human Notch2; design: expressed in transfected cells; host or cells: HEK-293, stably transfected
Protocol: as §1, §2

[1] = Table 6, Biacore, read-out: IgG Dissociation Constant (KD) m-Notch1

Sequence of human Notch2 (Q04721 26-2471): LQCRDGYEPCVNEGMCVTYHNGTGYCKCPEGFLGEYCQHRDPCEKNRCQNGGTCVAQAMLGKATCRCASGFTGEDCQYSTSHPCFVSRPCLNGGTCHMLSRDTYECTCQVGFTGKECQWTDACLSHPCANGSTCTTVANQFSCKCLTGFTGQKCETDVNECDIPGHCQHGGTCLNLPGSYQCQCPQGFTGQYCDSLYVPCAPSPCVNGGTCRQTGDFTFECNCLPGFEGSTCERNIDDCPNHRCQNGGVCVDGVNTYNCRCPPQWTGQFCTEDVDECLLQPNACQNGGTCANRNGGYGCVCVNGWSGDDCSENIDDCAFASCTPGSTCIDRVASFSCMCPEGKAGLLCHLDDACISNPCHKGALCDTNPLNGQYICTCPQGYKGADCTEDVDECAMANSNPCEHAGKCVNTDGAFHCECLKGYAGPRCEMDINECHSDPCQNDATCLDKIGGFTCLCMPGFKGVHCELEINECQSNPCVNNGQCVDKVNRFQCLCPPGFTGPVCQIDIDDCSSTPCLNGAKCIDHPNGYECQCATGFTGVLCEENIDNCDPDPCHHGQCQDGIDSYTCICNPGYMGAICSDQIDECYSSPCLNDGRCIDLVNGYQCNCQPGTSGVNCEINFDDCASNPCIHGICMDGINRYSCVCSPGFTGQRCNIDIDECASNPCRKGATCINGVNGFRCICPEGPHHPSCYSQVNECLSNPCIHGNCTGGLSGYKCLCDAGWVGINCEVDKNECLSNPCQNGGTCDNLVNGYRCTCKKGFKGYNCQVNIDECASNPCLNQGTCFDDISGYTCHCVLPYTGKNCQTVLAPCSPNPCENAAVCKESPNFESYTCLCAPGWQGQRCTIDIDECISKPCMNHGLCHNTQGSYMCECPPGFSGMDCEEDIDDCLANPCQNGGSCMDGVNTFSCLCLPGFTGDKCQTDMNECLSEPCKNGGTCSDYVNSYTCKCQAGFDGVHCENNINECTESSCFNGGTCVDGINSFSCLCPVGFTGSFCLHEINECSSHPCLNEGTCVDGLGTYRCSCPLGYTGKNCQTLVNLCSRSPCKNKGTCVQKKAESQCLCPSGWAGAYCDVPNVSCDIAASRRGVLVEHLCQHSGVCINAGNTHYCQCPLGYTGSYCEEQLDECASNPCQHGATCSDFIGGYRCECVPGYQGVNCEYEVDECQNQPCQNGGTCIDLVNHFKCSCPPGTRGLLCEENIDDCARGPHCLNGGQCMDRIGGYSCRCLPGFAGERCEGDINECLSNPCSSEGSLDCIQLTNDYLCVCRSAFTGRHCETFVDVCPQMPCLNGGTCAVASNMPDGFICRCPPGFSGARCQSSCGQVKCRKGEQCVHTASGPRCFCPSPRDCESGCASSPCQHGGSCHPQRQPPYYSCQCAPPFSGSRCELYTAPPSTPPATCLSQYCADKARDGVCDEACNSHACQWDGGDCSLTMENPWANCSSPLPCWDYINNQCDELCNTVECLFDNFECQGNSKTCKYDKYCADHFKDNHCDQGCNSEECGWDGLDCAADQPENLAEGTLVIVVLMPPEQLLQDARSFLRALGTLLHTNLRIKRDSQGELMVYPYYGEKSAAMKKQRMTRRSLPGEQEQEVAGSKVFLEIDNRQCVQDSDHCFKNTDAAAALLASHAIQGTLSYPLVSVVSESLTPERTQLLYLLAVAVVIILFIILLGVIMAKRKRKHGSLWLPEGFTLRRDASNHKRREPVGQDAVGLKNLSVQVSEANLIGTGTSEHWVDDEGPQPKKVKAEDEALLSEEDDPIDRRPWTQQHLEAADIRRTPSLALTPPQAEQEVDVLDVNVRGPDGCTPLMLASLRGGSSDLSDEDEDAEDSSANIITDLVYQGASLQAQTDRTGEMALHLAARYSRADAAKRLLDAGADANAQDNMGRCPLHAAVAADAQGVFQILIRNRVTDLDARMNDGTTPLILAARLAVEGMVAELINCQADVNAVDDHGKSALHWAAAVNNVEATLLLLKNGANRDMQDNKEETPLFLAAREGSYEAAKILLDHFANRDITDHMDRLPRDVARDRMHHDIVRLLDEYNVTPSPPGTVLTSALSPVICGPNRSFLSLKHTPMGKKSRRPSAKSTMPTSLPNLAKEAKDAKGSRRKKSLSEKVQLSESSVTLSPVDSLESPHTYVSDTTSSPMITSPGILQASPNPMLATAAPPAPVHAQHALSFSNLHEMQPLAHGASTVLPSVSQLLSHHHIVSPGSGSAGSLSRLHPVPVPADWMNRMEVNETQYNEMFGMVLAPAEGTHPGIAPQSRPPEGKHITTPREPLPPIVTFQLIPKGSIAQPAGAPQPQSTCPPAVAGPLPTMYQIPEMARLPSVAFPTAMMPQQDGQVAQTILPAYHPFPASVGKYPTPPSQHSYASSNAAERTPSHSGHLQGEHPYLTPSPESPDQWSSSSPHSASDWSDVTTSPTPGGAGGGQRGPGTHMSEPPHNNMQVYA
T1 sequence (P46531 19-2555): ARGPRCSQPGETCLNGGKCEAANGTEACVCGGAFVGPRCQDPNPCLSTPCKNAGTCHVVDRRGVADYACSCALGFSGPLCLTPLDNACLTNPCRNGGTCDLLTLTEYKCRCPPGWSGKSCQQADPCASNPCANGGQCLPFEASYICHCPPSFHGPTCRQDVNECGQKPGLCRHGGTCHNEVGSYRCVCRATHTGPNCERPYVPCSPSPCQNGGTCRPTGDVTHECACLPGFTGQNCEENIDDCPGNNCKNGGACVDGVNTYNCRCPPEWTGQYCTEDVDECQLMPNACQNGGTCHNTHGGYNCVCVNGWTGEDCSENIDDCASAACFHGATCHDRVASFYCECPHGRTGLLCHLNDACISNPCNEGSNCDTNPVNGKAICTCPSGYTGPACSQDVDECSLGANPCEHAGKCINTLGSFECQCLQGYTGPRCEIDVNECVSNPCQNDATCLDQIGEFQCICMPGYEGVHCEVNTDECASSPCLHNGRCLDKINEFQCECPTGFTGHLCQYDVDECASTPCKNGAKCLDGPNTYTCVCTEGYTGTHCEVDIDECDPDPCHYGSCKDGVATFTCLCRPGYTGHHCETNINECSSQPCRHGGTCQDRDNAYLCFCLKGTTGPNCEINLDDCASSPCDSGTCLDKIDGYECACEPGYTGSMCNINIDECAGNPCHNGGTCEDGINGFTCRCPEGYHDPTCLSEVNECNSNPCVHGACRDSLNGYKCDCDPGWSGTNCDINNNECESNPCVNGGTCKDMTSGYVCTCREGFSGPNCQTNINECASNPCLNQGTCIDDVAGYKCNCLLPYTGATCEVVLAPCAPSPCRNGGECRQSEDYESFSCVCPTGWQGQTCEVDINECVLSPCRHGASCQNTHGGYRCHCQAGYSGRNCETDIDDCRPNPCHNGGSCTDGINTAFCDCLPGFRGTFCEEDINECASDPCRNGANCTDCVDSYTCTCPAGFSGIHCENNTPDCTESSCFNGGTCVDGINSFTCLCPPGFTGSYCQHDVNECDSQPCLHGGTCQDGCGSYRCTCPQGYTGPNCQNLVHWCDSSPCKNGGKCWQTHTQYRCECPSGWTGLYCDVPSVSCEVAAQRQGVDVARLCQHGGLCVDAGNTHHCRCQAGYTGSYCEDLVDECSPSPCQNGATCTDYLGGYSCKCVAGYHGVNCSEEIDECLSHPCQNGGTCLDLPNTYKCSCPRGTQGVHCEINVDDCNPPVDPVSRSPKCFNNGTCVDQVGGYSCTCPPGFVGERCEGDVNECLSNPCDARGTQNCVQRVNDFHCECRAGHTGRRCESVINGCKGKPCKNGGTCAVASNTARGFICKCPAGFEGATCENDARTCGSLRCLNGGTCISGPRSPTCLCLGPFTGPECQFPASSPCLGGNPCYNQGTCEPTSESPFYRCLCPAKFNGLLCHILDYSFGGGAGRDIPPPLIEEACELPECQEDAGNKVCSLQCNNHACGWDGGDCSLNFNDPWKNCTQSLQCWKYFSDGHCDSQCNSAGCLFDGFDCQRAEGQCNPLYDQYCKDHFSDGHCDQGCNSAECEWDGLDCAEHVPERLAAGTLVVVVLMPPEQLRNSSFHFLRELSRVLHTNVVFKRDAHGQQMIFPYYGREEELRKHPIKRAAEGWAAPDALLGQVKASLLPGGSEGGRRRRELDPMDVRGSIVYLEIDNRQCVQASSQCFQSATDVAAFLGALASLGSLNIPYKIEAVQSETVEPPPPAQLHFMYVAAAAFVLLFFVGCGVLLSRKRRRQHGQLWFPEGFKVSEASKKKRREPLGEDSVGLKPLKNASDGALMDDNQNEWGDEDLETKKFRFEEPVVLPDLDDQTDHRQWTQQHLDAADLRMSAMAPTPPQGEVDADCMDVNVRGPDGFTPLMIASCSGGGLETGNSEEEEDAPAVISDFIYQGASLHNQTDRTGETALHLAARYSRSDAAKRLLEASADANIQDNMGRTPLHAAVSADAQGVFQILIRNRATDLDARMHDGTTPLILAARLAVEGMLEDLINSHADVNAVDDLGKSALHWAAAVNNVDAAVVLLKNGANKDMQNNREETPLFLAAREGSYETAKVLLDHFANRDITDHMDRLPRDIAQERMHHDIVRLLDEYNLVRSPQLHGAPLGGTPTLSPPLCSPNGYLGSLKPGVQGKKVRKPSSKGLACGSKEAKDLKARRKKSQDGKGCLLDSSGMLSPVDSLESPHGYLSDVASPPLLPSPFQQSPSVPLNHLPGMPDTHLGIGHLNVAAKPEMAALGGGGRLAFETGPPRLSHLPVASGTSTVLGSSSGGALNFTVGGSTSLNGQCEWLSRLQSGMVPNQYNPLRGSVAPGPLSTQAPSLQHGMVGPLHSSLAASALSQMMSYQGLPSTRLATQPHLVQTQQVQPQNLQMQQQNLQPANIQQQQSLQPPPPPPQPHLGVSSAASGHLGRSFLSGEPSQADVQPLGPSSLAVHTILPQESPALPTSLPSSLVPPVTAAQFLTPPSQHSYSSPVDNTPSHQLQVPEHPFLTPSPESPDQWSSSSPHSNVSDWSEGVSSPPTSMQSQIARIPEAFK

Row | Substance | binding to full-length human Notch1 (FACS) (human Notch1) | Kd (mNotch1; Table 3, Biacore, EGF10-15, read-out: Dissociation Constant (KD) mNotch1) | Kd (mNotch1; [1]) | C28 Tumor vol relative to the control group (C28 colon tumor cells) | growth of C28 colon tumors (C28 colon tumor cells) | C28 tumor growth, combination of 59R1 and irinotecan relative to the irinotecan group (C28 colon tumor cells; 59R1 10 mg/kg twice per week and irinotecan 7.5 mg/kg once per week) | C28 tumor growth, 59R1 alone relative to the control antibody group (C28 colon tumor cells; established tumors, 10 mg/kg twice per week) | binding to full-length human Notch2 (FACS) (human Notch2)
1 | 59R1: human IgG2 antibody binding Notch2 and Notch3; heavy and light chain SEQ ID NO:16 and 18; ATCC PTA-9547 | does not bind significantly | > 10 nM | > 10 nM | 0.29 | inhibited | inhibited | inhibited | specifically binds
2 | 59R5: human antibody that specifically binds human Notch 2 and human Notch 3; heavy and light chain SEQ ID NO:49 and 18; ATCC PTA-10170 | did not bind | – | > 10 nM | 0.38 | inhibited | – | – | bound
